Assay results published in the supplement of paper PMC5998384.

Legend:
HeLa Kyoto [1] = assay: thermal stability score vs G1/S (z-score of summed log2 fold changes over temperatures); higher = more thermally stable than in G1/S
HeLa Kyoto [2] = assay: solubility in G1/S (NP-40 vs SDS abundance) (log2 ratio); higher = more soluble; conditions: cell cycle stage: G1/S
HeLa Kyoto [3] = assay: melting temperature (median over replicates), in situ; higher = more thermally stable
HeLa Kyoto [4] = assay: solubility change mitosis vs G1/S (difference of NP-40 vs SDS log2 ratios) (log2 ratio difference); higher = more soluble in mitosis
[5] = cell cycle stage: early G1 (4.5 h after nocodazole release)
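Wherever melting temperature (median over replicates), in situ is given: HeLa Kyoto cells synchronized by double thymidine or nocodazole block, proteins quantified by TMT10plex mass spectrometry, three independent biological replicates.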
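Wherever solubility change mitosis vs G1/S (difference of NP-40 vs SDS log2 ratios) is given: synchronized HeLa Kyoto cells (double thymidine block for G1/S, nocodazole release for mitosis), protein amounts in NP-40 versus SDS lysates quantified by mass spectrometry, three biological replicates.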
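Wherever solubility in G1/S (NP-40 vs SDS abundance) is given: HeLa Kyoto cells arrested at G1/S by double thymidine block, proteins quantified by TMT10plex mass spectrometry in mild NP-40 versus SDS extracts, three biological replicates.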
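Wherever thermal stability score vs G1/S (z-score of summed log2 fold changes over temperatures) is given: synchronized HeLa Kyoto cells, proteins quantified by TMT10plex mass spectrometry, three biological replicates, mitosis taken 0.5 h after nocodazole release, G1/S directly after double thymidine block.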

Sequence of ANTXR1 (chain, as listed by the source): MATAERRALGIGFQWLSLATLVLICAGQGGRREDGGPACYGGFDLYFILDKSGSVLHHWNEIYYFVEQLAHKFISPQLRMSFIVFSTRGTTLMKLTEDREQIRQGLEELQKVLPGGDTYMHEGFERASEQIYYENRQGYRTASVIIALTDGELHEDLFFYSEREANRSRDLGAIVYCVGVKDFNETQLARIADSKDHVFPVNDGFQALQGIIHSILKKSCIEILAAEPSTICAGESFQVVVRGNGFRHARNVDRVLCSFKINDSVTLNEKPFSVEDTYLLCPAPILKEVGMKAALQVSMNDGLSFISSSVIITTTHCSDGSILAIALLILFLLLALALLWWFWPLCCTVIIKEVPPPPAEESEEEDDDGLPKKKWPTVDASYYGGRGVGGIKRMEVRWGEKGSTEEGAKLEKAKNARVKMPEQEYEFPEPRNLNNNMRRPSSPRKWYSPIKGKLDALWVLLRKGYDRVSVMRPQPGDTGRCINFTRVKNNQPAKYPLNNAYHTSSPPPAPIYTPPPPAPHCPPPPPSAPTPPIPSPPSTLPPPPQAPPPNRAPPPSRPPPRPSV

Substance	thermal stability score (HeLa Kyoto [1]; [5])	thermal stability score (HeLa Kyoto [1]; cell cycle stage: mitosis)	solubility in G1/S (log2) (HeLa Kyoto [2])	melting temperature (HeLa Kyoto [3]; cell cycle stage: G1/S)	melting temperature (HeLa Kyoto [3]; cell cycle stage: mitosis)	solubility change mitosis (log2) (HeLa Kyoto [4])
MAERGGDGGESERFNPGELRMAQQQALRFRGPAPPPNAVMRGPPPLMRPPPPFGMMRGPPPPPRPPFGRPPFDPNMPPMPPPGGIPPPMGPPHLQRPPFMPPPMSSMPPPPGMMFPPGMPPVTAPGTPALPPTEEIWVENKTPDGKVYYYNARTRESAWTKPDGVKVIQQSELTPMLAAQAQVQAQAQAQAQAQAQAQAQAQAQAQAQAQAQAQAQAQAQAQAQAQAQAQAQAQAQAQAQAQVQAQVQAQVQAQAVGASTPTTSSPAPAVSTSTSSSTPSSTTSTTTTATSVAQTVSTPTTQDQTPSSAVSVATPTVSVSTPAPTATPVQTVPQPHPQTLPPAVPHSVPQPTTAIPAFPPVMVPPFRVPLPGMPIPLPGVAMMQIVSCPYVKTVATTKTGVLPGMAPPIVPMIHPQVAIAASPATLAGATAVSEWTEYKTADGKTYYYNNRTLESTWEKPQELKEKEKLEEKIKEPIKEPSEEPLPMETEEEDPKEEPIKEIKEEPKEEEMTEEEKAAQKAKPVATAPIPGTPWCVVWTGDERVFFYNPTTRLSMWDRPDDLIGRADVDKIIQEPPHKKGMEELKKLRHPTPTMLSIQKWQFSMSAIKEEQELMEEINEDEPVKAKKRKRDDNKDIDSEKEAAMEAEIKAARERAIVPLEARMKQFKDMLLERGVSAFSTWEKELHKIVFDPRYLLLNPKERKQVFDQYVKTRAEEERREKKNKIMQAKEDFKKMMEEAKFNPRATFSEFAAKHAKDSRFKAIEKMKDREALFNEFVAAARKKEKEDSKTRGEKIKSDFFELLSNHHLDSQSRWSKVKDKVESDPRYKAVDSSSMREDLFKQYIEKIAKNLDSEKEKELERQARIEASLREREREVQKARSEQTKEIDREREQHKREEAIQNFKALLSDMVRSSDVSWSDTRRTLRKDHRWESGSLLEREEKEKLFNEHIEALTKKKREHFRQLLDETSAITLTSTWKEVKKIIKEDPRCIKFSSSDRKKQREFEEYIRDKYITAKADFRTLLKETKFITYRSKKLIQESDQHLKDVEKILQNDKRYLVLDCVPEERRKLIVAYVDDLDRRGPPPPPTASEPTRRSTK [TCERG1]	2.7	5.16	0.0535	48.5 °C	48.8 °C	-0.0317
MAAMAVALRGLGGRFRWRTQAVAGGVRGAARGAAAGQRDYDLLVVGGGSGGLACAKEAAQLGRKVAVVDYVEPSPQGTRWGLGGTCVNVGCIPKKLMHQAALLGGLIQDAPNYGWEVAQPVPHDWRKMAEAVQNHVKSLNWGHRVQLQDRKVKYFNIKASFVDEHTVCGVAKGGKEILLSADHIIIATGGRPRYPTHIEGALEYGITSDDIFWLKESPGKTLVVGASYVALECAGFLTGIGLDTTIMMRSIPLRGFDQQMSSMVIEHMASHGTRFLRGCAPSRVRRLPDGQLQVTWEDSTTGKEDTGTFDTVLWAIGRVPDTRSLNLEKAGVDTSPDTQKILVDSREATSVPHIYAIGDVVEGRPELTPIAIMAGRLLVQRLFGGSSDLMDYDNVPTTVFTPLEYGCVGLSEEEAVARHGQEHVEVYHAHYKPLEFTVAGRDASQCYVKMVCLREPPQLVLGLHFLGPNAGEVTQGFALGIKCGASYAQVMRTVGIHPTCSEEVVKLRISKRSGLDPTVTGCUG [TXNRD2]	2.59	-1.79	0.0295	53.6 °C	53 °C	-0.16
MAVLAALLRSGARSRSPLLRRLVQEIRYVERSYVSKPTLKEVVIVSATRTPIGSFLGSLSLLPATKLGSIAIQGAIEKAGIPKEEVKEAYMGNVLQGGEGQAPTRQAVLGAGLPISTPCTTINKVCASGMKAIMMASQSLMCGHQDVMVAGGMESMSNVPYVMNRGSTPYGGVKLEDLIVKDGLTDVYNKIHMGSCAENTAKKLNIARNEQDAYAINSYTRSKAAWEAGKFGNEVIPVTVTVKGQPDVVVKEDEEYKRVDFSKVPKLKTVFQKENGTVTAANASTLNDGAAALVLMTADAAKRLNVTPLARIVAFADAAVEPIDFPIAPVYAASMVLKDVGLKKEDIAMWEVNEAFSLVVLANIKMLEIDPQKVNINGGAVSLGHPIGMSGARIVGHLTHALKQGEYGLASICNGGGGASAMLIQKL [ACAT1]	-1.2	0.833	0.493	54.5 °C	54.8 °C	-0.0153
MPATLLRAVARSHHILSKAHQCRRIGHLMLKPLKEFENTTCSTLTIRQSLDLFLPDKTASGLNKSQILEMNQKKSDTSMLSPLNAARCQDEKAHLPTMKSFGTHRRVTHKPNLLGSKWFIKILKRHFSSVSTETFVPKQDFPQVKRPLKASRTRQPSRTNLPVLSVNEDLMHCTAFATADEYHLGNLSQDLASHGYVEVTSLPRDAANILVMGVENSAKEGDPGTIFFFREGAAVFWNVKDKTMKHVMKVLEKHEIQPYEIALVHWENEELNYIKIEGQSKLHRGEIKLNSELDLDDAILEKFAFSNALCLSVKLAIWEASLDKFIESIQSIPEALKAGKKVKLSHEEVMQKIGELFALRHRINLSSDFLITPDFYWDRENLEGLYDKTCQFLSIGRRVKVMNEKLQHCMELTDLMRNHLNEKRALRLEWMIVILITIEVMFELGRVFF [RMND1]	-1	-0.87	-0.145	52.1 °C	51.2 °C	-0.125
TPP2	-1.14	-1.13	-0.0302	54.6 °C	54.2 °C	-0.106
MANNSPALTGNSQPQHQAAAAAAQQQQQCGGGGATKPAVSGKQGNVLPLWGNEKTMNLNPMILTNILSSPYFKVQLYELKTYHEVVDEIYFKVTHVEPWEKGSRKTAGQTGMCGGVRGVGTGGIVSTAFCLLYKLFTLKLTRKQVMGLITHTDSPYIRALGFMYIRYTQPPTDLWDWFESFLDDEEDLDVKAGGGCVMTIGEMLRSFLTKLEWFSTLFPRIPVPVQKNIDQQIKTRPRKIKKDGKEGAEEIDRHVERRRSRSPRRSLSPRRSPRRSRSRSHHREGHGSSSFDRELEREKERQRLEREAKEREKERRRSRSIDRGLERRRSRSRERHRSRSRSRDRKGDRRDRDREREKENERGRRRDRDYDKERGNEREKERERSRERSKEQRSRGEVEEKKHKEDKDDRRHRDDKRDSKKEKKHSRSRSRERKHRSRSRSRNAGKRSRSRSKEKSSKHKNESKEKSNKRSRSGSQGRTDSVEKSKKREHSPSKEKSRKRSRSKERSHKRDHSDSKDQSDKHDRRRSQSIEQESQEKQHKNKDETV [PRPF38B]	0.848	1.5	-0.989	50 °C	50.6 °C	0.407
ANTXR1	-1.21	-3.82	0.0506	55 °C	55 °C	0.0236
PKN1	0.284	0.47	0.0374	49.9 °C	50.6 °C	-0.112
MIIPSLEELDSLKYSDLQNLAKSLGLRANLRATKLLKALKGYIKHEARKGNENQDESQTSASSCDETEIQISNQEEAERQPLGHVTKTRRRCKTVRVDPDSQQNHSEIKISNPTEFQNHEKQESQDLRATAKVPSPPDEHQEAENAVSSGNRDSKVPSEGKKSLYTDESSKPGKNKRTAITTPNFKKLHEAHFKEMESIDQYIERKKKHFEEHNSMNELKQQPINKGGVRTPVPPRGRLSVASTPISQRRSQGRSCGPASQSTLGLKGSLKRSAISAAKTGVRFSAATKDNEHKRSLTKTPARKSAHVTVSGGTPKGEAVLGTHKLKTITGNSAAVITPFKLTTEATQTPVSNKKPVFDLKASLSRPLNYEPHKGKLKPWGQSKENNYLNQHVNRINFYKKTYKQPHLQTKEEQRKKREQERKEKKAKVLGMRRGLILAED [NUSAP1]	1.75	-5.46	-0.327	54.7 °C	54.6 °C	0.535
MAMLRVQPEAQAKVDVFREDLCTKTENLLGSYFPKKISELDAFLKEPALNEANLSNLKAPLDIPVPDPVKEKEKEERKKQQEKEDKDEKKKGEDEDKGPPCGPVNCNEKIVVLLQRLKPEIKDVIEQLNLVTTWLQLQIPRIEDGNNFGVAVQEKVFELMTSLHTKLEGFHTQISKYFSERGDAVTKAAKQPHVGDYRQLVHELDEAEYRDIRLMVMEIRNAYAVLYDIILKNFEKLKKPRGETKGMIY [PSME1]	-2.91	-1.23	0.819	52.4 °C	53.8 °C	0.0323
GALK1	3.18	1.65	0.313	52.6 °C	52.7 °C	-0.117
MSCESSMVLGYWDIRGLAHAIRLLLEFTDTSYEEKRYTCGEAPDYDRSQWLDVKFKLDLDFPNLPYLLDGKNKITQSNAILRYIARKHNMCGETEEEKIRVDIIENQVMDFRTQLIRLCYSSDHEKLKPQYLEELPGQLKQFSMFLGKFSWFAGEKLTFVDFLTYDILDQNRIFDPKCLDEFPNLKAFMCRFEALEKIAAYLQSDQFCKMPINNKMAQWGNKPVC [GSTM3]	1.24	3.37	0.0979	47.9 °C	48.3 °C	-0.117
MVAPVLETSHVFCCPNRVRGVLNWSSGPRGLLAFGTSCSVVLYDPLKRVVVTNLNGHTARVNCIQWICKQDGSPSTELVSGGSDNQVIHWEIEDNQLLKAVHLQGHEGPVYAVHAVYQRRTSDPALCTLIVSAAADSAVRLWSKKGPEVMCLQTLNFGNGFALALCLSFLPNTDVPILACGNDDCRIHIFAQQNDQFQKVLSLCGHEDWIRGVEWAAFGRDLFLASCSQDCLIRIWKLYIKSTSLETQDDDNIRLKENTFTIENESVKIAFAVTLETVLAGHENWVNAVHWQPVFYKDGVLQQPVRLLSASMDKTMILWAPDEESGVWLEQVRVGEVGGNTLGFYDCQFNEDGSMIIAHAFHGALHLWKQNTVNPREWTPEIVISGHFDGVQDLVWDPEGEFIITVGTDQTTRLFAPWKRKDQSQVTWHEIARPQIHGYDLKCLAMINRFQFVSGADEKVLRVFSAPRNFVENFCAITGQSLNHVLCNQDSDLPEGATVPALGLSNKAVFQGDIASQPSDEEELLTSTGFEYQQVAFQPSILTEPPTEDHLLQNTLWPEVQKLYGHGYEIFCVTCNSSKTLLASACKAAKKEHAAIILWNTTSWKQVQNLVFHSLTVTQMAFSPNEKFLLAVSRDRTWSLWKKQDTISPEFEPVFSLFAFTNKITSVHSRIIWSCDWSPDSKYFFTGSRDKKVVVWGECDSTDDCIEHNIGPCSSVLDVGGAVTAVSVCPVLHPSQRYVVAVGLECGKICLYTWKKTDQVPEINDWTHCVETSQSQSHTLAIRKLCWKNCSGKTEQKEAEGAEWLHFASCGEDHTVKIHRVNKCAL [ELP2]	-0.251	-1.61	-0.174	51.7 °C	51.4 °C	-0.181
MGRLVAVGLLGIALALLGERLLALRNRLKASREVESVDLPHCHLIKGIEAGSEDIDILPNGLAFFSVGLKFPGLHSFAPDKPGGILMMDLKEEKPRARELRISRGFDLASFNPHGISTFIDNDDTVYLFVVNHPEFKNTVEIFKFEEAENSLLHLKTVKHELLPSVNDITAVGPAHFYATNDHYFSDPFLKYLETYLNLHWANVVYYSPNEVKVVAEGFDSANGINISPDDKYIYVADILAHEIHVLEKHTNMNLTQLKVLELDTLVDNLSIDPSSGDIWVGCHPNGQKLFVYDPNNPPSSEVLRIQNILSEKPTVTTVYANNGSVLQGSSVASVYDGKLLIGTLYHRALYCEL [PON2]	4.83	4.5	0.315	53.6 °C	53.6 °C	-0.101
